Laboratory results from patent publication US20250154215A1, “PHARMACEUTICAL COMPOSITION FOR TREATING COLITIS OR COLORECTAL CANCER COMPRISING COLON-TARGETED S100A8/A9-DERIVED SPECIFIC PEPTIDE” (Industry-University Cooperation Foundation Hanyang …, priority 2023, published 2025).
Entries after “also recorded” stand apart in the source; their conditions may differ.

Legend:
[1] = assay type: in vitro ADME; settings: human, 0.5 h
Protocol: Human plasma of each culture tube treated with S100A8/A9 peptide (10 μM) or rCT-S100A8/A9 protein (10 μg/mL) was incubated at 37° C. for 0, 30, and 120 minutes, respectively. At the designated time, an acetonitrile internal standard solution of chlorpropamide was added to each culture tube, and the resulting mixture was shaken with a vortex mixer for five minutes and centrifuged for additional five minutes (14,000 rpm, 4° C.). The supernatant was then injected into an LC-MS/MS system to analyze the plasma stability of the tested substances.

[2] = set-up: species or system mice; settings: mouse, in vivo, ip, 1 mg/kg
Protocol: Female C57BL/6 mice with body weight of 16 to 18 g were used for PK studies. S100A8/A9 peptide or rCT-S100A8/A9 protein (1 mg/kg) was administered to the mice by intraperitoneal injection. Whole blood samples ([…]) were collected serially from the orbital vein at 0.17, 0.5, 1, 2, 4, and 6 hours after drug administration. Blood samples were centrifuged at 12,000 rpm for five minutes at 4° C., and plasma was collected. To a 10 μL plasma sample, 20 μL of 0.1% formic acid in acetonitrile was added along with amlodipine, which was an internal standard (IS), at a concentration of 500 ng/mL, and the resulting mixture was vortexed. Samples were then centrifuged at 13,200 rpm for five minutes, and 10 μL aliquots were injected for LC-MS/MS analysis.

[3] = DSS-induced chronic colitis mouse model; assay type: in vivo, mice
Protocol: (§1) DSS-induced acute or chronic colitis and AOM/DSS CRC mouse models were prepared using 6-week-old C57BL/6 female mice (Samtako Bio, Osan, Korea). To assess the induction of acute colitis, mice were exposed ad libitum to 3% (w/v) dextran sodium sulfate (molecular weight: 36-50 kDa, MP Biomedicals, Santa Ana, CA, USA) dissolved in drinking water. The mouse models are illustrated in FIGS. 7A, 5E, and 6A. DSS solutions were prepared every two days. […] The humane endpoint for weight loss (requiring euthanasia) was 20% (compared to the original body weight of an animal). Without an approved exception request, body weight loss could not exceed 20%.
The clinical score of colitis was obtained by measuring body weight, fecal occult blood or total blood loss, and stool consistency every other day during the induction of colitis. The clinical score were assessed by two trained investigators who were randomly selected. For immunohistochemical analysis of tissue sections, mouse distal colon tissues were fixed in 10% formalin and embedded in paraffin. Paraffin sections ([…]) were cut and stained with H&E. Histopathological scoring was performed by a certified pathologist (Min-Kyung Kim, Department of Pathology, Kim Min-Kyung Pathology Clinic, Seoul, Korea) who scored each organ section independently without prior knowledge of the treatment group.
Next, the therapeutic effect of rCT-S100A8/A9 on chronic colitis was confirmed. Chronic DSS colitis was induced by three cycles of DSS+water combination, and intraperitoneal rCT-S100A8/A9 injection was performed once a day for three consecutive days of DSS administration in each cycle.

[4] = AOM/DSS-induced colitis-associated colorectal cancer (CAC) mouse model; assay type: in vivo, mice
Description: Weight of mice compared to baseline during AOM/DSS administration. In this experiment, weight loss is a surrogate indicator of colitis severity. Data is representative of two independent experiments with similar results. […] Note the higher tumor burden in the distal colon/rectum and the characteristic wrinkled texture of the proximal colon with little tumor growth. […] Most tumors are located in the distal colon, and their sizes are less than 2 mm. Data is shown as the mean±SD of six experiments. […] H&E and β-catenin stained slides show dysplastic changes similar to human colonic adenocarcinoma;
as §1
AOM/DSS-treated mice were administered rCT-S100A8/A9 four times according to the administration frequency during three DSS cycles until week 10 (FIG. 9A, top). […] Tumor induction by AOM/DSS treatment was mainly observed in the distal colon and produced colonic shortening in the CAC mouse model.

B1: TWYKIAFQRNRKTWYKIAFQRNRKTWYKIAFQRNRKTWYKIAFQRNRKTWYKIAFQRNRKGGFLVIKGGAHKSHKGGITIITFGGGHHGGFLVIKGGAHKSHKGGITIITFGGGHHGGFLVIKGGAHKSHKGGITIITFGGGHHGG (protein)
chain: TWYKIAFQRNRKTWYKIAFQRNRKTWYKIAFQRNRKTWYKIAFQRNRKTWYKIAFQRNRKGGFLVIKGGAHKSHKGGITIITFGGGHHGGFLVIKGGAHKSHKGGITIITFGGGHHGGFLVIKGGAHKSHKGGITIITFGGGHHGG
modifications: N-terminal 6xHis tag
[1]
  plasma stability, remaining: 100%
[2]
  AUC values and half-life: well maintained in the blood at effective drug concentrations
[3]; 2.5% DSS chronic colitis
  colon damage (H&E staining): decreased; also recorded: alleviated
  colon length: recovered
[3]; DSS-induced chronic colitis
  survival rates: significantly increased
[3]; i.p. once a day for three consecutive days per DSS cycle
  body weight loss: significantly reduced body weight loss
[3]; macrophages and colonic lysates, real-time PCR
  macrophage polarization (M1/M2 markers): not affected
[4]; AOM/DSS
  colonic length: restored
  histological colonic damage (H&E): significant alleviation; also recorded: significantly alleviated
  tumor burden in the distal colon: decreased
  β-catenin protein levels in colon (immunohistochemistry): effectively suppressed
[4]; AOM/DSS, three DSS cycles until week 10
  body weight gain: higher weight gain rate according to the treatment frequency; also recorded: increased
[4]; CRC colon tissues
  epithelial-to-mesenchymal transition (profiler PCR array): regulated
[4]; treatment for three consecutive days
  number of tumors less than 2 mm: significantly reduced
